# Source: US20260308536A1, “NOVEL URICASE VARIANTS AND METHODS OF USE THEREOF” (priority 2023, published 2026)
# Key:
# Assay type in all cases: biochemical, Aspergillus flavus
# [1] = system: O=c1[nH]c(=O)c2[nH]c(=O)[nH]c2[nH]1; assay: Michaelis-Menten kinetics, RasU_D8; conditions: other: role: substrate; RasU_D8 (SEQ ID NO: 236); pH 10.5; 25.0 °C
# From the text: (§1) Select Aspergillus flavus uricase variants RasU_D12, as well as its subvariants RasU_D12-A56T, and RasU_D12-W160E; and RasU_D8, as well as its subvariants RasU_D8-T33V, RasU_D8-Y65H, RasU_D8-W160E, RasU_D8-A209N, and RasU_D8-T210K were subject to further characterization by comparing their expression yields, Michaelis-Menten kinetics parameters, and thermostability measured by temperatures at which 50% of normal activity was lost determined by heat stress activity assay, with those of the wild type Aspergillus flavus uricase. As the names of the subvariants indicated, the subvariants of RasU_D12 were constructed by introducing an additional amino acid substitution A56T or W160E into the RasU_D12 variant, while the subvariants of RasU_D8 were constructed by introducing an additional amino acid substitution T33V, Y65H, W160E, A209N, or T210K into the RasU_D8 variant. Each of the additional amino acid substitutions was to address residual T cell epitopes in the RasU_D8 or RasU_D12 variant. The expression yields were determined as described above in the “Methods” section. The determination of the Michaelis-Menten kinetics parameters kcat and KM, and the heat stress activity assay were likewise performed using the methods described in Example 1. […]
# [2] = system: O=c1[nH]c(=O)c2[nH]c(=O)[nH]c2[nH]1; assay: Michaelis-Menten kinetics, RasU_D8-A209N; conditions: other: role: substrate; RasU_D8-A209N (SEQ ID NO: 272); pH 10.5; 25.0 °C
# From the text: as §1
# [3] = system: O=c1[nH]c(=O)c2[nH]c(=O)[nH]c2[nH]1; assay: Michaelis-Menten kinetics, RasU_D8-T33V; conditions: other: role: substrate; RasU_D8-T33V (SEQ ID NO: 269); pH 10.5; 25.0 °C
# From the text: as §1
# [4] = system: O=c1[nH]c(=O)c2[nH]c(=O)[nH]c2[nH]1; assay: Michaelis-Menten kinetics, RasU_D8-T210K; conditions: other: role: substrate; RasU_D8-T210K (SEQ ID NO: 273); pH 10.5; 25.0 °C
# From the text: as §1
# [5] = system: O=c1[nH]c(=O)c2[nH]c(=O)[nH]c2[nH]1; assay: Michaelis-Menten kinetics, RasU_D8-W160E; conditions: other: role: substrate; RasU_D8-W160E (SEQ ID NO: 271); pH 10.5; 25.0 °C
# From the text: as §1
# [6] = system: O=c1[nH]c(=O)c2[nH]c(=O)[nH]c2[nH]1; assay: Michaelis-Menten kinetics, RasU_D8-Y65H; conditions: other: role: substrate; RasU_D8-Y65H (SEQ ID NO: 270); pH 10.5; 25.0 °C
# From the text: as §1
# [7] = system: O=c1[nH]c(=O)c2[nH]c(=O)[nH]c2[nH]1; assay: Michaelis-Menten kinetics, RasU_D12; conditions: other: role: substrate; RasU_D12 (SEQ ID NO: 229); pH 10.5; 25.0 °C
# From the text: as §1
# [8] = system: O=c1[nH]c(=O)c2[nH]c(=O)[nH]c2[nH]1; assay: Michaelis-Menten kinetics, RasU_D12-A56T; conditions: other: role: substrate; RasU_D12-A56T (SEQ ID NO: 267); pH 10.5; 25.0 °C
# From the text: as §1
# [9] = system: O=c1[nH]c(=O)c2[nH]c(=O)[nH]c2[nH]1; assay: Michaelis-Menten kinetics, RasU_D12-W160E; conditions: other: role: substrate; RasU_D12-W160E (SEQ ID NO: 268); pH 10.5; 25.0 °C
# From the text: as §1
substance,measurement,setting,value
Aspergillus flavus uricase variant RasU_D8 (Aspergillus flavus; A230N/A241D/A97K/E42N/I83E/N101D/S148D/V54N),Km,[1],900 ± 200 µM
same,kcat,[1],0.8 ± 0.1 s⁻¹
Aspergillus flavus uricase variant RasU_D8-A209N (Aspergillus flavus; A210N/A230N/A241D/A97K/E42N/I83E/N101D/S148D/V54N),Km,[2],1100 ± 300 µM
same,kcat,[2],1.1 ± 0.1 s⁻¹
Aspergillus flavus uricase variant RasU_D8-T33V (Aspergillus flavus; A230N/A241D/A97K/E42N/I83E/N101D/S148D/T34V/V54N),Km,[3],3000 ± 1000 µM
same,kcat,[3],1.6 ± 0.5 s⁻¹
Aspergillus flavus uricase variant RasU_D8-T210K (Aspergillus flavus; A230N/A241D/A97K/E42N/I83E/N101D/S148D/T211K/V54N),Km,[4],3000 ± 2000 µM
same,kcat,[4],2.0 ± 0.7 s⁻¹
Aspergillus flavus uricase variant RasU_D8-W160E (Aspergillus flavus; A230N/A241D/A97K/E42N/I83E/N101D/S148D/V54N/W161E),Km,[5],600 ± 200 µM
same,kcat,[5],1.2 ± 0.2 s⁻¹
Aspergillus flavus uricase variant RasU_D8-Y65H (Aspergillus flavus; A230N/A241D/A97K/E42N/I83E/N101D/S148D/V54N/Y66H),Km,[6],3000 ± 1000 µM
same,kcat,[6],1.7 ± 0.5 s⁻¹
Aspergillus flavus uricase variant RasU_D12 (Aspergillus flavus; A230N/A241D/A97K/E42N/I83E/N101D/S148D/T211K),Km,[7],400 ± 100 µM
same,kcat,[7],1.3 ± 0.1 s⁻¹
Aspergillus flavus uricase variant RasU_D12-A56T (Aspergillus flavus; A230N/A241D/A57T/A97K/E42N/I83E/N101D/S148D/T211K),Km,[8],1500 ± 600 µM
same,kcat,[8],1.4 ± 0.3 s⁻¹
Aspergillus flavus uricase variant RasU_D12-W160E (Aspergillus flavus; A230N/A241D/A97K/E42N/I83E/N101D/S148D/T211K/W161E),Km,[9],1700 ± 1000 µM
same,kcat,[9],1.7 ± 0.5 s⁻¹
